US20130108682A1, “WOUND CARE PRODUCT COMPRISING A CATHELICIDIN POLYPEPTIDE” (LIPOPEPTIDE AB, priority 2007, published 2013)

Assay: Release of LL-37 from coated polyurethane (PU) foam, quantified by ELISA
Format: physicochemical
Settings: for % LL-37 released in solution: PU foam, data not shown
Experimental: LL-37 dissolved in PBS or ethanol was absorbed onto PU foam at a concentration of 25 μg LL-37/cm^2. A 1×1 cm piece of each preparation was cut, placed into a glass vial containing 3 ml PBS, and incubated under agitation for 24 h. At various time points (10, 20, 45, 120 min, and 24 h), 100 μl samples were collected and the amount of LL-37 released in solution was evaluated by ELISA. Results are expressed as the % LL-37 released in solution.
LL-37 was dissolved in ethanol or in PBS and 1 ml suspension was dropped onto 2×2 cm pieces of polyurethane (PU) foam (Brightwake, Kirkby-in-Ashfield, United Kingdom). The samples were allowed to dry at room temperature (RT) until no further weight loss could be recorded. Unless otherwise noted, a LL-37 solution at 100 μg/ml was used, resulting in a concentration of 25 μg LL-37/cm^2.
LL-37 was also mixed with various excipients before being applied onto the 2×2 cm PU foams. LL-37 dissolved in PBS was added to dry galactolipid and the resulting dispersion was vigorously shaken for 1 h. The galactolipid concentration was 0.2% (w/w). LL-37 dissolved in water was added to a preformed gel consisting of 25% poloxamer (Lutrol F127) in water. The resulting mixtures of about 1 g were heated at about 60° C. for about 10 min to evaporate the alcohol. The formulations were then applied with a spatula on 2×2 cm pieces of PU. In case the formulation contained water, PU foams were dried at RT for at least 24 h.
To release LL-37 from coated PU foam, 1×1 cm samples were cut and weighed in order to calculate the amount of LL-37 present in each sample. Each PU foam sample was placed into a 15 ml glass vial containing 3 ml PBS and incubated at RT for the indicated time period with constant shaking of 6 rpm. At various time intervals (10, 20, 45, 120 min, and 24 h), 100 μl release sample was removed for analysis and replaced with 100 μl fresh PBS. Release samples were stored at 4° C. until analysis, usually for 24 h.
The release was calculated as the total amount of LL-37 in the release liquid divided by the amount of loaded LL-37 in the sample.
LL-37 was detected and quantified using an enzyme-linked immunosorbent assay (ELISA) based on the protocol developed by Lindgreen and colleagues (Lindgreen 2004). Medium binding capacity 96-well plates (Greiner Bio-one, Frickenhausen Germany) were coated with […] rabbit IgG anti-LL-37 antibodies (Agrisera, Vännäs, Sweden) in 200 μl coating buffer (0.1M bicarbonate buffer, pH 9.0) for 18 to 24 h at 2-8° C. […] Reaction was stopped by addition of 50 μl 1 M sulfuric acid and absorbance immediately read at 450 nm (OD450 nm) using a VERSAmax microplate reader equipped with SoftMax Pro software for analysis (Molecular Devices).

LLGDFFRKSKEKIGKEFKRIVQRIKDFLRNLVPRTES [LL-37]
% LL-37 released in solution (maximum) (PU foam with 25 μg LL-37, peptide formulated in PBS or in ethanol, 3 ml PBS, shaking, after 24 h incubation): 30% | % LL-37 released in solution (LL-37 formulated in galactolipid (ethanol or PBS solutions)): No detectable | % LL-37 released in solution (LL-37 formulated in poloxamer (Lutrol)): 1% | LL-37 concentration in release sample as determined by ELISA (release sample from PU foam where LL-37 in PBS has been absorbed, used in second chemotaxis experiment): 4,500 ng/ml
